From patent US20020058247A1 (TRIPEP, published 2002)

Columns and labels:
[1] = target: T1, Full length recombinant HBcAg (rHBcAg) encompassing residues 1-183 (hepatitis B virus, UniProt P03146 1-183); assay: EIA, peptide coated 100 ug/ml, HBcAg 10 ug/ml
T1 construct: range 1-183; also called hepatitis B virus core antigen

[2] = target: T1, Full length recombinant HBcAg (rHBcAg) …; assay: competition EIA, HBcAg coated 1 ug/ml, peptide 100 ug/ml before mAb 4-2 (competitor); OD of bound mAb
[3] = target: T1, Full length recombinant HBcAg (rHBcAg) …; assay: competition EIA, HBcAg coated 5 ug/ml, peptide 100 ug/ml together with mAb 4-2 (competitor); OD of bound mAb
[4] = target: T1, Full length recombinant HBcAg (rHBcAg) …; assay: competition EIA, HBcAg coated 5 ug/ml, peptide 50 ug/ml together with mAb 4-2 (competitor); OD of bound mAb
[5] = target: T1, Full length recombinant HBcAg (rHBcAg) …; assay: EIA, support-bound peptide, HBcAg 5 ug/ml
[6] = target: T2, truncated recombinant form of HBeAg containing nine residues of pre-core and the 150 first residues of HBcAg (hepatitis B virus, UniProt P03146 1-150); assay: EIA, support-bound peptide, HBeAg 0.67 ug/ml
T2 construct: domain: nine residues of pre-core;range 1-150; also called hepatitis B virus e antigen

[7] = target: T1, Full length recombinant HBcAg (rHBcAg) …; assay: competition EIA, HBcAg coated 1 ug/ml, peptide 12.5 ug/ml before mAb 4-2 (competitor); OD of bound mAb
[8] = target: T1, Full length recombinant HBcAg (rHBcAg) …; assay: EIA, peptide coated 12.5 ug/ml, HBcAg 10 ug/ml
[9] = target: T1, Full length recombinant HBcAg (rHBcAg) …; assay: competition EIA, HBcAg coated 5 ug/ml, peptide 25 ug/ml together with mAb 4-2 (competitor); OD of bound mAb
[10] = target: T1, Full length recombinant HBcAg (rHBcAg) …; assay: competition EIA, HBcAg coated 1 ug/ml, peptide 200 ug/ml before mAb 4-2 (competitor); OD of bound mAb
[11] = target: T1, Full length recombinant HBcAg (rHBcAg) …; assay: competition EIA, peptide added to HBcAg before mAb 4-2 (competitor); OD of bound mAb

T2 sequence (P03146 1-150): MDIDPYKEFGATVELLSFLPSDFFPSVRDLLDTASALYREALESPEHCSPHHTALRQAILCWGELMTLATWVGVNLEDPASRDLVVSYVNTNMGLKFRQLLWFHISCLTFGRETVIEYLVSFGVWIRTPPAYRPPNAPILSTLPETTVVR
T1 sequence (P03146 whole entry, the tested form may be a part): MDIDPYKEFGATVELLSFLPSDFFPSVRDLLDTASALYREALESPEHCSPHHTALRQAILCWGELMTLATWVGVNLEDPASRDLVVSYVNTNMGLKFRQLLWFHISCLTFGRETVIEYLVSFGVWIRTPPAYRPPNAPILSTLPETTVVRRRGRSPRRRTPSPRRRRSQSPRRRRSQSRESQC

Binder | OD [1] [OD] | OD at 490 nm [2] [OD] | OD at 490 nm [3] [OD] | OD at 490 nm [4] [OD] | OD at 490 nm [5] [OD] | OD [6] [OD] | OD at 490 nm [7] [OD] | OD [8] [OD] | OD at 490 nm [9] [OD] | OD at 490 nm [10] [OD] | OD at 490 nm [11] [OD]
ISCRASQSVSTSSYSYMHWY [ISCRASQSVSTSSYSYMHWY (SEQ. ID. No. 17)] | 0.641 | 0.37 | 1.46 | 1.56 | 1.94 | 0.046 | 0.38 | 0.514 | 1.39 | 0.305 | –
LAVSLGQRATISCRASQSVS [LAVSLGQRATISCRASQSVS (SEQ. ID. No. 16)] | 0.9 | 0.345 | 0.891 | 0.998 | – | 0.024 | 0.365 | 0.24 | 1.03 | 0.299 | –
VKPGASVKLSCKASGYIFTS (also called Peptide # 2; Pept. #2) [VKPGASVKLSCKASGYIFTS (SEQ. ID. No. 5)] | 1.45 | 0.083 | 0.194 | 0.395 | 3.26 | 0.081 | 0.331 | 0.913 | 0.698 | 0.078 | 0.453
CKASGYSFTGYNMNWVKQSH (also called Peptide # 26) [CKASGYSFTGYNMNWVKQSH (SEQ. ID. No. 29)] | 0.422 | 0.28 | 0.947 | 1.25 | – | 0.027 | 0.357 | 0.179 | 1.35 | 0.201 | –
VKPGASVKISCKASGYSFTG (also called Peptide # 25) [VKPGASVKISCKASGYSFTG (SEQ. ID. No. 28)] | 1.01 | 0.274 | 0.91 | 1.22 | – | 0.022 | 0.339 | 0.423 | 1.2 | 0.173 | –
